Laboratory results as given in patent US20110318827A1 (COMMISSARIAT A L ENERGIE ATOMIQUE ET AUX ENERGIES …, published 2011).
Bridge positions count the residues as written; N and C are the ends. Square brackets hold non-standard residues; d marks the D form. Ends that are not written are not given here.

Legend:
[1] = biological target: somatostatin receptor SST-1 (CHO-SST-1 (mb)) (Homo sapiens (Human), UniProt P30872 1-391); assay: radioligand competition binding, CHO-SST-1 (mb)
[2] = biological target: T1, Somatostatin receptor subtype 2 (SST-2) on rat pancreatic carcinoma AR4-2J cells (rat, UniProt P30680 1-369); assay: competition with [125I]-[Tyr1]-somatostatin on AR4-2J cell suspension, filtration, Cheng-Prusoff
T1 construct: whole, on cells; Whole-cell suspension; the cells express predominantly, not only, SST-2; also called AR2-2J cells
T1 sequence (P30680 whole entry): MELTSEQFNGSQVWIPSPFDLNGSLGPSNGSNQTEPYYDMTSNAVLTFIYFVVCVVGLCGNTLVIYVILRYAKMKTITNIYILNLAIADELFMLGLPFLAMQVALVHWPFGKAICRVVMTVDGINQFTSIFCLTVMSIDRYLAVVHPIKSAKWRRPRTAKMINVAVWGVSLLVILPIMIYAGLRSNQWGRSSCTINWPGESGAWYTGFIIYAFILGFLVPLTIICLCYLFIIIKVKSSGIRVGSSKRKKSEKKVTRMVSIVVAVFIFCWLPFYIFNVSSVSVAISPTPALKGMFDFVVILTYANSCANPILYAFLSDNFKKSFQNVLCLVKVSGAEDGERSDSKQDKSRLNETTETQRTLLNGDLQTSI
Experimental: (§1) The cells were grown in tissue culture dishes (Falcon) which were incubated at 37° C. in an atmosphere of 5% CO₂ and 95% humidified air in DMEM medium with 4.5 g/l glucose supplemented with 1% L-glutamine, 20% foetal calf serum, 1% penicillin/streptomycin and amphotericin B (1 μg/mL). Subculturing was performed with a trypsin/EDTA (0.05%/0.02% w/v) solution. All products were purchased from Sigma (Saint-Quentin Fallavier; France). At 100% confluence, the medium was removed and the cells were harvested using Versen buffer (PBS+5 mM EDTA), washed with ice-cold phosphate buffer and finally centrifuged at 1000 g for 7 min (4° C.). The pellet was suspended in ice-cold buffer (10 mM MgCl₂, 0.25% BSA, 50 mM HEPES pH7.5, 1% protease inhibitor cocktail (Sigma) and cells suspension was stored in ice before binding experiments.
(§2) All binding experiments for AR4-2J cells were done at 37° C. in 10 mM MgCl₂, 0.25% BSA, 50 mM HEPES pH7.5, 1% protease inhibitor cocktail (Sigma). […] Non-specific binding was determined in the presence of 5 μM somatostatin-28. Incubation was terminated by addition of ice-cold washing buffer (Tris 10 mM pH7.2) and rapid filtration over Whatman GF/C glass fiber filters pre-soaked in 0.5% polyethylenimine. The filters activity was measured in a Cobra gamma counter. Each experiment has been performed in duplicates at least two times.

[3] = biological target: T1, Somatostatin receptor subtype 2 (SST-2) …; assay: competition with [125I]-[Tyr1]-somatostatin on AR4-2J cell suspension
Experimental: as §1, §2

[4] = biological target: somatostatin receptor SST-5 (CHO-SST-5 (mb)) (Homo sapiens (Human), UniProt P35346 1-364); assay: radioligand competition binding, CHO-SST-5 (mb)
Chain of somatostatin receptor SST-5 (CHO-SST-5 (mb)) (P35346 whole entry, form in doubt): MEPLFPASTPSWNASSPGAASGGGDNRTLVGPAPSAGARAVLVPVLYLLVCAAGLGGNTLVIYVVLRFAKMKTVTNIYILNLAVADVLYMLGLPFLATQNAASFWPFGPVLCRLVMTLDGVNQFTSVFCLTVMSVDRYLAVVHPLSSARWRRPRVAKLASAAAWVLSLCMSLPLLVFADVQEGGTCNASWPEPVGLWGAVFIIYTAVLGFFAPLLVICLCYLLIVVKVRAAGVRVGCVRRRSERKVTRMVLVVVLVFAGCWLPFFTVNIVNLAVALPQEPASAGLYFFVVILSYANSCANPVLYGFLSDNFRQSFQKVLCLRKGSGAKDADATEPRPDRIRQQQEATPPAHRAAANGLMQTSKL

[5] = biological target: T2, somatostatin receptor SST-2 (CHO-SST-2 (mb)) (Homo sapiens (Human), UniProt P30874 1-369); assay: radioligand competition binding, CHO-SST-2 (mb)
T2 construct: Printed as 'CHO-SST-2 (mb)'; also called SST-2 receptor
T2 sequence (P30874 whole entry, form in doubt): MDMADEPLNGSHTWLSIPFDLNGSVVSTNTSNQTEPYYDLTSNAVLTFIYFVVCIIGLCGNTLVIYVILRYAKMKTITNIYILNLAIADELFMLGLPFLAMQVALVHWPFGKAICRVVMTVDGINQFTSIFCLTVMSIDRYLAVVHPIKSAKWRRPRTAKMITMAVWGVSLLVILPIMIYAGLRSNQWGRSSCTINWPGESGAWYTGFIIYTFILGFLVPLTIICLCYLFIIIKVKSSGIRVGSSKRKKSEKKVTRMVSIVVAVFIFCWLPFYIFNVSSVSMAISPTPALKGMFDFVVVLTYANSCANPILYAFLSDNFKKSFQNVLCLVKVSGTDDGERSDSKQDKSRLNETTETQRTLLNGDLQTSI

[6] = biological target: somatostatin receptor SST-3 (CHO-SST-3 (mb)) (Homo sapiens (Human), UniProt P32745 1-418); assay: radioligand competition binding, CHO-SST-3 (mb)
Chain of somatostatin receptor SST-3 (CHO-SST-3 (mb)) (P32745 whole entry, form in doubt): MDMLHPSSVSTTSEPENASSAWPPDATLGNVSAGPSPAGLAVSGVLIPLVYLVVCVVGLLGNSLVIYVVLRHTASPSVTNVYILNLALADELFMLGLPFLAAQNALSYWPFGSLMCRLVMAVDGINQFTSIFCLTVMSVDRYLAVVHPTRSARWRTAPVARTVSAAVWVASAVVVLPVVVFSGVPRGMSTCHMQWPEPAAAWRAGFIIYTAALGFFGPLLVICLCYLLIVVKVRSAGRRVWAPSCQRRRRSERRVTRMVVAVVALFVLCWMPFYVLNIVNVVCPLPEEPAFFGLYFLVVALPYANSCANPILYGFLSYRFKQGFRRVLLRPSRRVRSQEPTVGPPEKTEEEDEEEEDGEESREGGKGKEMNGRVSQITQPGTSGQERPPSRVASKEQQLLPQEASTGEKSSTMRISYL

Chain of somatostatin receptor SST-1 (CHO-SST-1 (mb)) (P30872 whole entry, form in doubt): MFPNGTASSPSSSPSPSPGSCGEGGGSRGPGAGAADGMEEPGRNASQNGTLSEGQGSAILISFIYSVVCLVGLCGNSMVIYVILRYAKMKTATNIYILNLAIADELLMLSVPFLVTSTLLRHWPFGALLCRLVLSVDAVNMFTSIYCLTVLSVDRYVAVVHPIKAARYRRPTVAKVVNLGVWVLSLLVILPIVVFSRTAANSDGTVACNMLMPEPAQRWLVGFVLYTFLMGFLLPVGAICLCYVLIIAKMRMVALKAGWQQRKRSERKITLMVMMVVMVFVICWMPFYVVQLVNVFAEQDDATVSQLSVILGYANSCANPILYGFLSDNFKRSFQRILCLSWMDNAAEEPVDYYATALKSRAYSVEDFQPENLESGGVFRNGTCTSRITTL

B1: TcO[HTGRRRGG-RC-121] (peptide)
peptide: TGRRRGGFCYWKVCT
modifications: [TcO]3+ core chelated by the N-terminal HTGRRR tag; free N-terminus; the RC-121 part carries D-Phe, D-Trp, a C-terminal amide and the preserved disulfide bridge
- Ki [1]: 58 nM
- Ki [2]: 0.066 nM
- Kd [3]: 0.06 nM
- Ki [4]: 30 nM
- Ki [5]: 0.02 nM
- Ki [6]: 10 nM

B2: RC-121 (peptide)
peptide: [dF]CY[dW]KVCT-NH2
modifications: disulfide 2-7
notes: Cyclic octapeptide somatostatin analog, made by solid phase synthesis
- Ki [2]: 0.3 nM

B3: HTGRRRGG-RC-121 (peptide)
peptide: TGRRRGGFCYWKVCT
HELM: PEPTIDE1{T.G.R.R.R.G.G.[dF].C.Y.[dW].K.V.C.T.[am]}$PEPTIDE1,PEPTIDE1,9:R3-14:R3$$$V2.0
SMILES: CC(C)[C@@H]1NC(=O)[C@H](CCCCN)NC(=O)[C@@H](Cc2c[nH]c3ccccc23)NC(=O)[C@H](Cc2ccc(O)cc2)NC(=O)[C@@H](NC(=O)[C@@H](Cc2ccccc2)NC(=O)CNC(=O)CNC(=O)[C@H](CCCNC(=N)N)NC(=O)[C@H](CCCNC(=N)N)NC(=O)[C@H](CCCNC(=N)N)NC(=O)CNC(=O)[C@@H](N)[C@@H](C)O)CSSC[C@@H](C(=O)N[C@H](C(N)=O)[C@@H](C)O)NC1=O
notes: not complexed with Tc
- Ki [2]: 0.035 nM
- Ki [5]: 0.02 nM
